# Measurements: paper PMC3139607
# B1: MAb DB81 (antibody, V domains shown)
# VH: EVQLQQSGPELVKPGASVKISCKASGYSFTDYTMLWVKQSHGKSLEWIGNINPYYDTTTYNLNFKGKATMTVDKSSSTAYMQLNSLTSEDSAVYYCAREGDYGHPFAYWGQGTLVTVSS
# VL: DIVMTQSHKFMSTSVGDRVSITCKASQDVSTTVAWYQQKPGQSPKLLIYSASYRYTGVPDRFTGSGSGTDFTFTISSVQAEDLAVYYCQQHYSTPPTFGGGTKLEIR
# Legend:
# [1] = molecular target: 2D-CD4-gp120 (Ba-L) complex (human | HIV-1 isolate Ba-L); test: ELISA; hybridoma culture supernatants diluted 1:1 on solid-phase 2D-CD4, gp120 (Ba-L) or the 2D-CD4/gp120 (Ba-L) complex; values qualitative
# [2] = molecular target: two-domain (2D) soluble CD4 (amino acids 1 to 183) (human); test: as above
binder,measurement,setting,value
B1,Binding to CD4-gp120 (ELISA reading),[1],2
same,Binding to CD4 (ELISA reading),[2],1.23
